The values below come from patent US7018836 (UNIVERSITY OF IOWA RESEARCH FOUNDATION, dated 2006).

The target of this assay is T1, HIS-tagged human P-TEFb small subunit PITALRE (human, UniProt P50750 1-372).
T1 construct: also called HBS; HIS-tagged human kinase subunit (PITALRE)
The assay can be described thus: co-expression in baculovirus, co-recovery with the HIS-tagged small subunit from a nickel column.

T1 sequence (P50750 whole entry): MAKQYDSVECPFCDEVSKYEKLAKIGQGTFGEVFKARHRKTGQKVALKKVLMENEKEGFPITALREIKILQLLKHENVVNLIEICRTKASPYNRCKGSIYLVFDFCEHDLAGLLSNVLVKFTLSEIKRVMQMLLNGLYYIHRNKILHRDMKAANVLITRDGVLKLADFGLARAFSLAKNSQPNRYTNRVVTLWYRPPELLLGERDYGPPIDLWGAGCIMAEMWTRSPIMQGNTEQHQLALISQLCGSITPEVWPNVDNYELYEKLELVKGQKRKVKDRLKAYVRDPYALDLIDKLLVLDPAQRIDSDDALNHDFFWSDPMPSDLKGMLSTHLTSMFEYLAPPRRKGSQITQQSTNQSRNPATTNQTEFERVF

B1: Drosophila P-TEFb small subunit with a HIS-tag at the carboxyl-terminus (enzyme)
chain: MAHMSHMLQQPSGSTPSNVGSSSSRTMSLMEKQKYIEDYDFPYCDESNKYEKVAKIGQGTFGEVFKAREKKGNKKFVAMKKVLMDNEKEGFPITALREIRILQLLKHENVVNLIEICRTKATATNGYRSTFYLVFDFCEHDLAGLLSNMNVKFSLGEIKKVMQQLLNGLYYIHSNKILHRDMKAANVLITKHGILKLADFGLARAFSIPKNESKNRYTNRVVTLWYRPPELLLGDRNYGPPVDMWGAGCIMAEMWTRSPIMQGNTEQQQLTFISQLCGSFTPDVWPGVEELELYKSIELPKNQKRRVKERLRPYVKDQTGCDLLDKLLTLDPKKRIDADTALNHDFFWTDPMPSDLSKMLSQHLQSMFEYLAQPRRSNQMRNYHQQLTTMNQKPQDNSMIDRVW
notes: also called DBS; Drosophila P-TEFb small (kinase) subunit; not shown: HIS-tag added to the carboxyl-terminus
For the molecule B1, the binding result is on record as “no binding”.
